Assay results: US20220249563A1 (LEGEND BIOTECH IRELAND, published 2022)

T1: extracellular domain of human DLL3 protein (aa27-466) having an N-terminal FLAG tag (AdipoGen, AG-40B-0151) (human, UniProt Q9NYJ7 27-466)
T1 construct: range 27-466; also called DLL3 ECD protein
T1 sequence (looked up): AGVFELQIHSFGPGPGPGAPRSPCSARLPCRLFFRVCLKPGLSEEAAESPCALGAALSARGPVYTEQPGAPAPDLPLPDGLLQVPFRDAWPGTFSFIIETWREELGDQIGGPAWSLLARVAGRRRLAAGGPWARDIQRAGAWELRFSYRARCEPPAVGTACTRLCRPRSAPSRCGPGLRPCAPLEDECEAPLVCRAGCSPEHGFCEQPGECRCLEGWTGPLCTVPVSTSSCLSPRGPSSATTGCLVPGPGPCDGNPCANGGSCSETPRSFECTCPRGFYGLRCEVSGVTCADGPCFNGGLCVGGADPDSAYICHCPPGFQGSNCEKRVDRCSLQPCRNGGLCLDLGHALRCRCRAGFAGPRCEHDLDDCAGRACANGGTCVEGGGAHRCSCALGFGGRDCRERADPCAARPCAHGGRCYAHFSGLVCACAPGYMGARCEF

B1: AS63930 (VHH)
VHH: EVQLAESGGGSVQAGGSLRLSCAASGYTYSGNYMAWFRQAPGNEREGVAVVYNIDGGGRFTTYADSVKGRFTISRGNDKNTVYLQMNSLKPEDSGMYYCAAEVADPTWGSRDQRRYKYWGQGTQVTVSS
notes: camel sdAb; crude E. coli supernatant
B2: AS64118 (VHH)
VHH: QVQLAESGGGSVQAGGSLRLSCAASGYTYSACRMAWYRQAPGKERELVSFINSAGSTYYADSVKGRFAISRDNAKTTVYLQMNALKAEDTAIYYCNTWDSSCRFQYWGQGTQVTVSS
notes: as for B1
B3: AS64120 (VHH)
VHH: QVRLVESGGGSVQAGGSLRLSCETSRYIYGNNCMAWFRQAPGKEREGVASIYPAGGRPYYADSVKGRFTISQDNAKNTVYLQMDSLKPEDTAMYYCAARSFSIADCATQSGITRSNFAYWGQGTQVTVSS
notes: as for B1
B4: AS63951 (VHH)
VHH: QVHLMESGGGSVQAGGSLRLACETSRDIYGNNCMAWFRQAPGKEREGVASIYPAGGRPYYADSVKGRFTISQDNAKNTVYLQMDSLKPEDTAMYYCAARSFSIAVCATRSGITRSNFAYWGQGTQVTVSS
notes: as for B1
B5: AS64093 (VHH)
VHH: QVHLVESGGGSVQAGGSLRLSCATSRYIYGNNCMAWFRQAPGKEREGVASIYPAGGRTYYADSVKGRFTISQDNAKNTVYLQIDSLKPEDTAMYYCAARSFSIGVCATQSGITWSNFAYWGQGTQVTVSS
notes: as for B1
B6: AS64124 (VHH)
VHH: QVKLVESGGGSVQTGGSLRLSCAVSTYTPSNNYMGWFRQAPGKEREGVAAIATIGGTTRYADSVKGRFTISQDGAKNTIYLQMNGLKPEDTAMYYCAAGRPYSLPLPLPLESGAYRYWGQGTQVTVSS
notes: as for B1
B7: AS64135 (VHH)
VHH: QVKLVESGGGSVQAGGSLRLSCVASTSTYCRYYMRWYRQAPGKEREFVSAMQPDGTTSYSDSVKGRFTMSQDRANNMLYLQMNSLRPEDTAMYYCKRDPMGGSRTPCTSAWGQGTQVTVSS
notes: as for B1
B8: AS64163 (VHH)
VHH: QVRLVESGGGSVQAGGSLRLSCAVSGYRYRWNCMAWFRQAPGKEREGVAAISTGSGSTYYAGSVKGRFTISQDNAKNMYLQMNSLKPEDTAMYYCAADPSVCPGGMWYSKEYRYWGQGTQVTVSS
notes: as for B1
B9: AS63948 (VHH)
VHH: QVQLVESGGGSVQAGGSLRLSCTASGYTYRYLYMGWFRQTPGKEREGVACIYTGSGSTGYADSVKGRFTISQDNAENTVYLQMNSLKPEDTAMYYCAAASPRWGGTCRRWSEYNYWGQGTQVTVSS
notes: as for B1
B10: AS64154 (VHH)
VHH: QVQLKESGGGSVQAGGSLRLSCTASGYTYRYLYMGWFRQTPGKEREGVACIYTGSGSTGYADSVKGRFTISQDNAKNTVYLQMNNLKPEDTAMYYCAASSPRWGGTCRRWSQYNYWGQGTQVTVSS
notes: as for B1
B11: AS64182 (VHH)
VHH: QVHLMESGGGSVQAGGSLRLSCTASGQTSRYLYMGWFRQTPGKEREGVACIYTGSGSTGYADSVKGRFTISQDNAKNTVYLQTNSLKPEDTAMYYCAASSPHWGGTCRRWSEYKYWGQGTQVTVSS
notes: as for B1
B12: AS64473 (VHH)
VHH: QVRLVESGGGSVQAGGSLRLSCTASGYTYRYLYMAWFRQTPGKEREGVACIYTGSGTTGYADSVKGRFTISQDNAKNTVYLQMNSLNAEDTAMYYCAASSPQWGGTCRRWSEYNYWGQGTQVTVSS
notes: as for B1
B13: AS64183 (VHH)
VHH: QVHLVESGGGSVQAGGSLRLSCAASGHTYSANCMAWFRRAPGKEREWVASVYTDDDSTMYTDSVKGRFTIFQDNAKNTVYLQMNSLKPEDTGMYICAADLSGGPAGCGYTHWGQGTQVTVSS
notes: as for B1
B14: AS63984 (VHH)
VHH: QVKLVESGGGSVQAGGSLRLSCAASGYTYSSNFMGWFRQAPGKEREGVATIVSGGGTTYYADSVRGRFTISQDNAKNTVYLQMNSLKPEDTAMYYCAAGGPVTNAPRWYPLRPPGYNYWGQGTQVTVSS
notes: as for B1
B15: AS64207 (VHH)
VHH: EVQLVESGGGSVQAGGSLRLSCAASGYTYSSNFMGWFRQAPGKEREGVATIVSGGGTTYYADSVRGRFTISQDNAKNTVYLQMNSLKPEDTAMYYCAAGGPPTNGAKWYPLRPPGYNYWGQGTQVTVSS
notes: as for B1
B16: AS64276 (VHH)
VHH: QVHLMESGGGSVQAGGSLSLSCVVSGYTGSSRCMAWFRQAPGKEREAVAQIFTGRGTTGYADSVKGRFTISQDNAKNTVYLRMNSLRPEDTAIYYCAASLGPGRGACGYNYWGQGTQVTVSS
notes: as for B1
B17: AS64336 (VHH)
VHH: QVQLVESGGGSVQAGGSLRLSCTTSGRTYSSCSMGWYRQAPGKERELVSHIFSDGSRYYADSVKGRFTISQDNAKNTVYLQMNSLKPEDTAMYYCNRRTGWAPRCAVPGYWGQGTQVTVSS
notes: as for B1
B18: AS64346 (VHH)
VHH: QVHLVESGGGSVQAGGSLRLSCAASGYTYFMGWFRQAPQKEREWVATIGTGDIFNGAAYYVDSVKGRFAISQDNAKNTVYLQMNSLKPEDTAVYVCAAVQSKSSNYVLRDASTYNYWGQGTQVTVSS
notes: as for B1
B19: AS64420 (VHH)
VHH: EVQLVESGGGSVQAEGSLRLSCAASGDTSRSVWMGWARQVPGKEREVVATISTAGGSTWYTDSVKGRFTISQDNAKNTVYLQMNSLKPEDTAIYYCAARSRYATYWGQGTQVTVSS
notes: as for B1
B20: AS64475 (VHH)
VHH: QVQLQESGGGSVQAGGSLRLSCAASGYTWSRNWMGWFRQAPGKEREGFATITISGGSTWYADSVKGRFTISLDNAGNTVYLQMNSLKPEDTAMYYCAARDTARTYWGQGTQVTVSS
notes: as for B1
B21: AS64513 (VHH)
VHH: EVQLVESGGGSVQAGGSLRLSCVASDYPYIDNCMGWFRQGPGKEREGVAAACTGGGSTYYADSVKGRFTISRDNAKNTVYLQMNSLKPEDTDVYYCATGYYSGSGPGYLLPWRYNYWGQGTQVTVSS
notes: as for B1
B22: AS64562 (VHH)
VHH: EVQLVESGGGSVQAGGSLRLSCAASGYTARRDFMAWFRQVPGKEREGVAVIHTGGDTTYYADSVKGRFTISRDNAQNIMNLQMNSLKPEDTAMYYCAAGFRPRGGGYTGDVLAQAAAYNYWGQGTQVTVSS
notes: as for B1
B23: AS64583 (VHH)
VHH: EVQLAESGGGLVQAGGSLRLSCTASGFTIAVYTMGWFRQAPGKEREGISCTSWAGGRTYTADSVKGRFTISRDNAKNTLYLQMNSLKPEDTAMYYCAAKAHPDCSGDWSPSGYEYWGQGTQVTVSS
notes: as for B1
B24: AS64594 (VHH)
VHH: QVHLVESGGGSVQAGGSLRLSCAASGYTYNSNYMGWFRQAPGKEREGVALIYTGGGSTYYADSVKGRFTISRDNAKNTVYLQMNSLKPEDTAMYYCSVRTQTRNYWGQGTQVTVSS
notes: as for B1
B25: AS64605 (VHH)
VHH: QVKLVESGGGSVQAGGSLRLSCAVSRYPYSSICMGWFRQAPGKESEGVARIYTGTGSTWYTDSVKGRFTIARDNAQNTVYLQMNSLKPEDTAMYYCAARSNSYSYSSCDYGPLTRGGYNFWGQGTQVTVSS
notes: as for B1
B26: AS68121 (VHH)
VHH: EVQLAESGGGSVQAGGSLRLSCDASGYTYSRNCMGWFRQAPGKEREGVAAFYTDYIRFGRTYYADSVKGRFTIFQDNAKNTVYLQMNSLKPEDTAMYYCAADPGSRTDDSCGTSYNKGNFGYWGQGTQVTVSS
notes: as for B1
B27: AS68170 (VHH)
VHH: QVQLVESGGGSVQAGGSLRLSCTASGYTYRSNCMGWFRQAPGKEREGVATIYTGGGRNLYYADSVKGRFTISRDNAKNTLYLQMNSLKPEDSARYYCAAASDVAVGVNSCGGRTAGFDAWGQGTQVTVSS
notes: as for B1
B28: AS63964 (VHH)
VHH: QVRLVESGGGSVQAGGSLRLSCSASGYTYSYNNMGWFRQAPGNEREGVAAISGGRFTAYADSVKGRFTISRDNAENTLYLQMNNLKPEDTGMYYCAAEVVDPTWGSRDQRRYKYWGQGTQVTVSS
notes: as for B1
B29: AS64116 (VHH)
VHH: QVKLVESGGGSVQAGGSLRLSCAASGYIYSCVGWFRQAPGKEREGVAGISTGGGGTVYADSVKGQFTISRDNAKNTVYLQMDSLKPEDTAMYYCAADRWNSFANCGAWGRYTYWGQGTQVTVSS
notes: as for B1
B30: AS68270 (VHH)
VHH: QVQLAESGGGSVQAGGSLRLSCVASGYPSSTYYMLSMAWFRQAPGKEREGVAAITSGTGSTSYADSVKDRFTISKDYANNTLYLHINNLKPEDTAMYYCAAASGWIVPSRSLTANLYRYWGQGTQVTVSS
notes: as for B1

molecular target: T1, extracellular domain of human DLL3 …; experiment: ELISA (protein), FACS (cells)

Binder	binding result
B1	binds
B2	binds
B3	binds
B4	binds
B5	binds
B6	binds
B7	binds
B8	binds
B9	binds
B10	binds
B11	binds
B12	binds
B13	binds
B14	binds
B15	binds
B16	binds
B17	binds
B18	binds
B19	binds
B20	binds
B21	binds
B22	binds
B23	binds
B24	binds
B25	binds
B26	binds
B27	binds
B28	binds
B29	binds
B30	binds
